Biological target: IL-1 receptor (IL-1R1) on A375.s2 cells (UniProt P14778)
Test: cell-based or functional assay

Chain of UniProt P14778 (P14778 18-569 limits assumed): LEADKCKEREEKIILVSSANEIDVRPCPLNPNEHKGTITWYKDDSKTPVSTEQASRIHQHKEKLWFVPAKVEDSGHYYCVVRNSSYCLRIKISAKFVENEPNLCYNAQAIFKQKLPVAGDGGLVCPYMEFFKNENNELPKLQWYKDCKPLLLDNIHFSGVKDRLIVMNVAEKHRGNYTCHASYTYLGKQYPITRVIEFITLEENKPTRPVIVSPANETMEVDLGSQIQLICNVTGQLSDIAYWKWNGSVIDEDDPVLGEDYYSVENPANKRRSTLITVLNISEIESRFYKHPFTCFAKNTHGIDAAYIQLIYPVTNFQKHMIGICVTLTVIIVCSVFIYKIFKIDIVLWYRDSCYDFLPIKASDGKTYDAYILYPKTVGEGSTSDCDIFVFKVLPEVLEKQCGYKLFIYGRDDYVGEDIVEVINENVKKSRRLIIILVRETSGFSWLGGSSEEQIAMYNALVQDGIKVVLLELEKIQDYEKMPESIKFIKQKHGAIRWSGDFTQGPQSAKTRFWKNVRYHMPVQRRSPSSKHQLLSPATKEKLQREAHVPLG

| Substance | IC50(µg/ml), inhibition of IL-1β induced A375.s2 apoptosis (MTS, 490 nM) | biological activity relative to the wild type | IL1RN activity IC50 |
| --- | --- | --- | --- |
| IL-1RN D74N-Fc without linker (from UniProt P18510 26-177) (Fc fusion) | 4.85 µg/mL | 3 fold |  |
| IL-1RN-Fc, single-target comparator of Table 4 (from UniProt P18510 26-177) (Fc fusion) |  |  | 0.333 µg/mL |
| IL-1RN-TNFR2-Fc dual-target fusion protein (IL-1RN D74N, TNFR2, hIgG4 Fc S228P) (Fc fusion) |  |  | 0.714 µg/mL |
| Wild-type IL-1RN-Fc of Table 2 (from UniProt P18510 26-177) (Fc fusion) | 12.1 µg/mL |  |  |
